Measured values taken from patent publication US20260091068A1, “METHODS FOR TREATING AND PREVENTING DISEASES” (priority 2017, published 2026).

Test system: Bacteriophages of E. coli
Test: Inactivation of bacteriophages by nucleases and proteases, titer by Gratia's method (Example 22)
Format: cell-based
Conditions: E. coli phage treated with 10 mcg/ml enzyme for 30 min
Method: As a control, when the original phage is added back, the titer increases.

B1: Proteinase K: Proteinase K (Promega) (protein, UniProt P06873 106-384, looked up)
Proteinase K: AAQTNAPWGLARISSTSPGTSTYYYDESAGQGSCVYVIDTGIEASHPEFEGRAQMVKTYYYSSRDGNGHGTHCAGTVGSRTYGVAKKTQLFGVKVLDDNGSGQYSTIIAGMDFVASDKNNRNCPKGVVASLSLGGGYSSSVNSAAARLQSSGVMVAVAAGNNNADARNYSPASEPSVCTVGASDRYDRRSSFSNYGSVLDIFGPGTSILSTWIGGSTRSISGTSMATPHVAGLAAYLMTLGKTTAASACRYIADTANKGDLSNIPFGTVNLLAYNNYQA
  Phage titer (by Gratia's method): 6 × 10^4
